{"source": "paper PMC6139572", "about": "“Structural and functional effects of myosin-binding protein-C phosphorylation in heart muscle are not mimicked by serine-to-aspartate substitutions” (The Journal of Biological Chemistry, 2018)", "settings_in_all_cases": "both partners purified", "key": {"[1]": {"target": "isolated native thin filaments (UniProt P68032 1-377)", "test": "co-sedimentation; high-velocity co-sedimentation of C1mC2 constructs with isolated native thin filaments; performed as described in ref. 15"}, "[2]": {"target": "T1, myosin S2Δ, the first 126 amino acids of myosin sub-fragment 2 (rat heart) (rat, Alexa 647 (labelled with Alexa 647–NHS, efficiency of ~80%))", "T1 construct": "cardiac myosin heavy chain cloned from a rat heart cDNA library; the first 126 amino acids of myosin S2; also called Alexa 647–myosin S2Δ; source: E. coli BL21(DE3)-RIPL, purified (HisTrapFF, TEV, Mono Q); not shown: His6, N-terminal, cleaved", "test": "MST; as a2 (pH 7, 50 mmol/liter KCl); 30 °C"}, "[3]": {"target": "T1, myosin S2Δ, the first 126 amino acids …", "test": "MST; isolated m-motif titrated against 100 nmol/liter Alexa 647–myosin S2Δ; MST buffer adjusted to pH 6.2, enhanced gradient standard capillaries; 50 mmol/liter KCl; 30 °C"}}, "data": [{"binder": "C1mC2 of rat cardiac myosin-binding protein-C with three phosphorylatable serines mutated to aspartate (domain or fragment) PIGLFLMRPQDGEVTVGGSIVFSARVAGASLLKPPVVKWFKGKWVDLSSKVGQHLQLHDSYDRASKVYLFELHITDAQATSAGGYRCEVSTKDKFDSCNFNLTVHEAIGSGDLDLRSAFRRTDLAGTGRRTDDSHEDAGTLDFSSLLKKSDFRRDSKLEAPAEEDVWEILRQAPPSEYERIAFQHGVTDLRGMLKRLKGMKHDEKKSTAFQKKLEPAYQVNKGHKIRLTVELADPDAEVKWLKNGQEIQMSGRYIFESIGAKRTLTISQCSLADDAAYQCVVGGEKCSTELFVKEP", "values": [{"measurement": "Kd", "setting": "[1]", "result": 16, "unit": "µM"}]}, {"binder": "C1–C2, construct containing Ig domains C1 and C2 of rat cardiac myosin-binding protein-C connected by a flexible linker, with the m-motif deleted (domain or fragment) PIGLFLMRPQDGEVTVGGSIVFSARVAGASLLKPPVVKWFKGKWVDLSSKVGQHLQLHDSYDRASKVYLFELHITDAQATSAGGYRCEVSTKDKFDSCNFNLTKKSTAFQKKLEPAYQVNKGHKIRLTVELADPDAEVKWLKNGQEIQMSGRYIFESIGAKRTLTISQCSLADDAAYQCVVGGEKCSTELFVKEP", "values": [{"measurement": "Kd", "setting": "[2]", "result": 477, "unit": "µM"}]}, {"binder": "isolated m-motif of rat cardiac myosin-binding protein-C (domain or fragment) VHEAIGSGDLDLRSAFRRTSLAGTGRRTSDSHEDAGTLDFSSLLKKSSFRRDSKLEAPAEEDVWEILRQAPPSEYERIAFQHGVTDLRGMLKRLKGMKHDE", "values": [{"measurement": "Kd", "setting": "[3]", "result": 41.1, "unit": "µM"}]}]}
